# Results taken from IntAct's records for PubMed 21321230.
# Legend:
# dcc_rat Dcc [1] = molecular target: dcc_rat Dcc (UniProt Q63155)
# dcc_rat Dcc [2] = molecular target: dcc_rat Dcc (UniProt Q63155); remark: listed apart in the source
# UniProt Q63155, sequence (Q63155 whole entry): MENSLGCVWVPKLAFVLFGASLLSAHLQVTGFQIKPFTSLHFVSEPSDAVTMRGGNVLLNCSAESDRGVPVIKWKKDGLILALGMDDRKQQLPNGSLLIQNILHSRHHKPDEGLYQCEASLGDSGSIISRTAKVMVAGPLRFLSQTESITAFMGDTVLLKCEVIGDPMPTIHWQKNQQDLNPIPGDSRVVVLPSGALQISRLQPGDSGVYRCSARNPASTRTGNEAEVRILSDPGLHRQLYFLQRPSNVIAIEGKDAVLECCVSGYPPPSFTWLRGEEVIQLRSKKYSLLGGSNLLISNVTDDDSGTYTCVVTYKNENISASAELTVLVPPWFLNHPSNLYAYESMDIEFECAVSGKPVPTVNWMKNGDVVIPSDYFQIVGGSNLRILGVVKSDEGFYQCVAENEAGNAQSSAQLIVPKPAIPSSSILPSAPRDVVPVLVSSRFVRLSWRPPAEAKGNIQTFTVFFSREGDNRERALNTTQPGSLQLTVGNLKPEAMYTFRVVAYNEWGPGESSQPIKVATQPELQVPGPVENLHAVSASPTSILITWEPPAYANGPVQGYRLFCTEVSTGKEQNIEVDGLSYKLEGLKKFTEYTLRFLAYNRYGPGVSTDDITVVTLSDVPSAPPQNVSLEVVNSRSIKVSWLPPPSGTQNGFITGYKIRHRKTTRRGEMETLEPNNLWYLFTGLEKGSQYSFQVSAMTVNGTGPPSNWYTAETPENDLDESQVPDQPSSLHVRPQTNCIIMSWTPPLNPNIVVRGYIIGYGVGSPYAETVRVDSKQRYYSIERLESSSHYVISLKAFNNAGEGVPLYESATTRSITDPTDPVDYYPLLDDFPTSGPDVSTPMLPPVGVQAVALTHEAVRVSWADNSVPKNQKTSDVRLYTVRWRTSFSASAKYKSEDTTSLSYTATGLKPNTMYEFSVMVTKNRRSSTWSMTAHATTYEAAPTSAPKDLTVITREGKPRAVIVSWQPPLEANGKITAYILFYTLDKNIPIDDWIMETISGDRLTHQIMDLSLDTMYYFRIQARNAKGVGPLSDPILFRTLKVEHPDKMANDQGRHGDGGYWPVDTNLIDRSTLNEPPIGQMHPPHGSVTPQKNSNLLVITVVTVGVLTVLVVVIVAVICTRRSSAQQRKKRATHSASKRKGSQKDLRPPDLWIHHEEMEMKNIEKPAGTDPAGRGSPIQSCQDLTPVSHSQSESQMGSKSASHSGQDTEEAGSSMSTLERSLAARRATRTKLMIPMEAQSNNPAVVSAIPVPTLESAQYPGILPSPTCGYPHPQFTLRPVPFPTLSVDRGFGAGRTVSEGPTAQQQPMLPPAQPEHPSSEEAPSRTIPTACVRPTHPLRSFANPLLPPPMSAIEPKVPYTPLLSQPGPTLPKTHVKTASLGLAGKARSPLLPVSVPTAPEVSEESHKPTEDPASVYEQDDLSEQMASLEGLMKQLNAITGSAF
Substance,effect of a mutation on the interaction (dcc_rat Dcc [1]),effect of a mutation on the interaction (dcc_rat Dcc [2])
"Unconventional myosin-X (Homo sapiens), Q9HD67 S1718A;H1719A",disrupting interaction strength,
"Unconventional myosin-X (Homo sapiens), Q9HD67 I2037E",,disrupting interaction strength
"Unconventional myosin-X (Homo sapiens), Q9HD67 S1718A;H1719A;D1763A;E1769A;K1770A",disrupting interaction strength,
